“And” between values parts separate entries of the source, which are not always exact repeats. Identical values can stand only once.
Key:
[1] = biological target: prostate specific membrane antigen (PSMA), full-length human (human) (UniProt Q04609); assay: cell-bound fraction of 111In mAb, PSMA-3T3 cells
[2] = biological target: prostate specific membrane antigen (PSMA), full-length human (human) (UniProt Q04609); assay: cell-bound fraction of 111In mAb, average
[3] = biological target: prostate specific membrane antigen (PSMA), full-length human (human) (UniProt Q04609); assay: cell-based or functional assay

Sequence of prostate specific membrane antigen (PSMA), full-length human (human) (Q04609 whole entry): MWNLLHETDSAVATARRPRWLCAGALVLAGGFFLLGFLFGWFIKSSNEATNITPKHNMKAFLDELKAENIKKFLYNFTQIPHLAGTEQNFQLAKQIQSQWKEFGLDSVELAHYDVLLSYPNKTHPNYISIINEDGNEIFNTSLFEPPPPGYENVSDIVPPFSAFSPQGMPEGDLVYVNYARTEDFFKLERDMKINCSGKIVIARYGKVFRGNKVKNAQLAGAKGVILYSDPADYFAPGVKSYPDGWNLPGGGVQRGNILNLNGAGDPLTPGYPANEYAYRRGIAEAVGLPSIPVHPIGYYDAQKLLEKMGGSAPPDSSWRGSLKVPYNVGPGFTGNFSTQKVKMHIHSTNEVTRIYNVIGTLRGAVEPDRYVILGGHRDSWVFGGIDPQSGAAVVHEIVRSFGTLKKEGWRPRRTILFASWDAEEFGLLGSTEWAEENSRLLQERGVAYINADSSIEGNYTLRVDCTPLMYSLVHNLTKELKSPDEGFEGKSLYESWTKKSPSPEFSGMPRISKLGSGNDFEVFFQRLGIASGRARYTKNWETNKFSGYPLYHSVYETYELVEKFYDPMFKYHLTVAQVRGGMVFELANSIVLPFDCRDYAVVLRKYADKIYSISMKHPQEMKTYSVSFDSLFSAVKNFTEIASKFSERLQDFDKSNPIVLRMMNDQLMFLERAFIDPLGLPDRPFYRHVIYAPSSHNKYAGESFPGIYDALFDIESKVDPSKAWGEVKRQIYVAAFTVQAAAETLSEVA

| Substance | Immunoreactivity (%) [1] | Immunoreactivity (%), average [2] | LD50, immunotoxin (Mab-Zap saporin) cytotoxicity on C4-2 cells [3] | LD50, immunotoxin (Mab-Zap saporin) cytotoxicity on PSMA-3T3 cells [3] |
| --- | --- | --- | --- | --- |
| 111In radiolabeled CHX-A''-DTPA mJ591 (antibody) | 58.5% and 54.9% | 56.7% |  |  |
| mAb J591 (antibody) |  |  | 88.2 pM | 89 pM |

— patent publication US20050215472A1
